The source of these data is patent US9395368B2, “Methods, agents and peptides for inducing an immune response to matrix metalloproteinase-2 expressing tumors” (New York University, priority 2010, dated 2016).

The test system of one assay is OX40L expression on DCs. In words: OX40L expression on DCs by surface staining. Type of assay: cell-based, human. As to conditions: immature and poly(I:C)-matured DCs, n=9, 24 h. The procedure:
Immature and poly(I:C)-matured DCs were incubated with active or HI MMP-2 (0.5 μg/mL or 5 μg/mL) for 24 h. MMP-2 enzymatic activity was controlled (FIG. 13C-D). OX40L expression was assessed by surface staining (A) Histogram plots are shown for representative donor HD1228. Isotype control is represented in tinted gray. (B) Mean fluorescent intensities are represented for all 9 donors tested. […] P values≦0.0167 (*) were considered statistically significant using a Bonferroni correction for 3 comparisons for each DC type. See also FIG. 12.
Dendritic cell preparation and activation. PBMCs were purified from healthy—(HD) or cord blood—(CB) donors and plated at 40×10^6 cells/10 mL/dish in complete IMDM with 5% PHS. Cells were allowed to adhere for 2 h at 37° C. Non-adherent cells were removed. The monocyte-enriched fraction was supplemented with 100 UI/mL rhGMCSF and 300 UI/mL rhIL-4 (R&D Systems) on days 0, 2 and 4. Immature DCs were harvested on day 5 and matured using poly(I:C) at 5 μg/mL/10^6 DCs (Amersham) Secretion of IL-12p70, TNFα, IL-1β, IL-6, IL-8 and IL-10 was assessed on both immature and mature DCs using the Human Inflammatory Cytokine Cytometric Bead Array (BD Pharmingen).

Another assay has as its system Recombinant IL-12p70. In words: Incubation of recombinant IL-12p70 with MMP-2, IL-12p70 content by CBA. The format is biochemical, human. As to conditions: rhIL-12 incubated for 24 h in the presence or absence of MMP-2.
Assay [1] has as its system IL-12p35 and IL-12p40 in DCs. In words: Intracellular staining of IL-12p35 and IL-12p40 chains in DCs. Type of assay: cell-based, human. The procedure:
(§1) Immature DCs were incubated with MMP-2 (0.5 μg/mL or 5 μg/mL) and poly(I:C)-matured 1 h later. IL-12 levels were measured 16 h later. (A) Results are represented as a percentage of IL-12p70 levels, measured by CBA, produced when DCs were incubated with poly(I:C) only (n=11). (B) For intracellular staining of IL-12p35 and IL-12p40 chains, Brefeldin A was added 4 h after poly(I:C) activation and cells were stained after an additional 12 h incubation. Numbers in the upper right quadrants are the percentages of each population for a representative donor (n=3). (C,D) Immature DCs were incubated with MMP-2 for 1 h (5 μg/mL) before poly(I:C) maturation. Intracellular staining of phosphorylated (Y701) STAT1 (P-STAT1) was performed 3 h later. A representative donor (C) and results for all 3 donors (D) are shown. […] (E) Immature DCs were incubated with MMP-2 and poly(I:C)-matured 1 h later. IFNβ levels were measured by ELISA 16 h later. Results are represented as a percentage of IFNβ levels produced when DCs were incubated with poly(I:C) only (n=9). (F,G) 10^6DCs/lane were treated with 0.1 μg MMP-2 or controls. Poly(I:C) was added 1 h later. IFNAR1 protein expression was detected the next day by Western blot analysis using a rabbit monoclonal antibody. A representative donor (F) and results for all 7 donors (G) are shown. (H) The rhIFNAR1 (5 μg; ≈110 kD) was incubated overnight with 0.3 μg MMP-2 before performing Western blot analysis for IFNAR1. The second band (around 90 kD) and the third band (25 kD) very likely correspond to either a degraded form of the protein still recognized by the antibody or a contaminant present in the commercial protein preparation and non-specifically recognized by the antibody. MMP-2 enzymatic activity was controlled (FIG. 13C-D). […]
(§2) Intracellular staining T-bet and GATA-3 expression was measured on resting T cells. […] Cytokine production by T cells was also assessed by intracellular staining T cells were stimulated with 2 μM overlapping peptides. […]

The test system of assay [2] is phosphorylated (Y701) STAT1. The experiment in a line: Intracellular staining of phosphorylated (Y701) STAT1 in DCs. Type of assay: cell-based, human. As to conditions: DCs preincubated 1 h (5 μg/mL) prior to poly(I:C), 3 h. The procedure: as §1, with “(F,G) 10^6DCs/lane were treated with 0.1 μg MMP-2 or controls. Poly(I:C) was added 1 h later.” left out, “antibody.” for “antibody. A representative donor (F) and results for all 7 donors (G) are shown. (H) The rhIFNAR1 (5 μg; ≈110 kD) was incubated overnight with 0.3 μg MMP-2 before performing Western blot analysis for IFNAR1. The second band (around 90 kD) and the third band (25 kD) very likely correspond to either a degraded form of the protein still recognized by the antibody or a contaminant present in the commercial protein preparation and non-specifically recognized by the antibody. MMP-2 enzymatic activity was controlled (FIG. 13C-D).”
as §2

In another assay the test system is IFNAR1. In words: IFNAR1 protein expression in DCs (Western blot). Type of assay: cell-based, human. The following applies: n=7 donors. The procedure: as §1, with “antibody.” for “antibody. A representative donor (F) and results for all 7 donors (G) are shown. (H) The rhIFNAR1 (5 μg; ≈110 kD) was incubated overnight with 0.3 μg MMP-2 before performing Western blot analysis for IFNAR1. The second band (around 90 kD) and the third band (25 kD) very likely correspond to either a degraded form of the protein still recognized by the antibody or a contaminant present in the commercial protein preparation and non-specifically recognized by the antibody. MMP-2 enzymatic activity was controlled (FIG. 13C-D).”
(§3) Western blots IFNAR1 and β-actin were detected by Western blot analysis using rabbit and mouse mAbs, respectively. […]

The next assay deals with rhIFNAR1. The experiment in a line: Overnight incubation of rhIFNAR1 with MMP-2 (Western blot). The format is biochemical, human. As to conditions: incubated overnight. The procedure: as §1, with “antibody.” for “antibody. A representative donor (F) and results for all 7 donors (G) are shown. (H) The rhIFNAR1 (5 μg; ≈110 kD) was incubated overnight with 0.3 μg MMP-2 before performing Western blot analysis for IFNAR1. The second band (around 90 kD) and the third band (25 kD) very likely correspond to either a degraded form of the protein still recognized by the antibody or a contaminant present in the commercial protein preparation and non-specifically recognized by the antibody. MMP-2 enzymatic activity was controlled (FIG. 13C-D).”
as §3

B1: active MMP-2: Purified human MMP-2 (mixture of the proenzyme (50%) and the active form (50%)) purchased from Biomol (protein, listed as Homo sapiens)
chain: MEALMARGALTGPLRALCLLGCLLSHAAAAPSPIIKFPGDVAPKTDKELAVQYLNTFYGCPKESCNLFVLKDTLKKMQKFFGLPQTGDLDQNTIETMRKPRCGNPDVANYNFFPRKPKWDKNQITYRIIGYTPDLDPETVDDAFARAFQVWSDVTPLRFSRIHDGEADIMINFGRWEHGDGYPFDGKDGLLAHAFAPGTGVGGDSHFDDDELWTLGEGQVVRVKYGNADGEYCKFPFLFNGKEYNSCTDTGRSDGFLWCSTTYNFEKDGKYGFCPHEALFTMGGNAEGQPCKFPFRFQGTSYDSCTTEGRTDGYRWCGTTEDYDRDKKYGFCPETAMSTVGGNSEGAPCVFPFTFLGNKYESCTSAGRSDGKMWCATTANYDDDRKWGFCPDQGYSLFLVAAHEFGHAMGLEHSQDPGALMAPIYTYTKNFRLSQDDIKGIQELYGASPDIDLGTGPTPTLGPVTPEICKQDIVFDGIAQIRGEIFFFKDRFIWRTVTPRDKPMGPLLVATFWPELPEKIDAVYEAPQEEKAVFFAGNEYWIYSASTLERGYPKPLTSLGLPPDVQRVDAAFNWSKNKKTYIFAGDKFWRYNEVKKKMDPGFPKLIADAWNAIPDNLDAVVDLQGGGHSYFFKGAYYLKLENQSLKSVKFGSIKSDWLGC
Turning to B1, the “OX40L expression on DCs” value in the assay on OX40L expression on DCs is given as “significantly increased”. Also, the “IL-12p70 levels after incubation of rhIL-12 with MMP-2” value in the assay on Recombinant IL-12p70 was “remained the same”. For the same molecule, the IL-12p40 production result in assay [1] is recorded as “not affected overall”. Further, the “IL-12p35 production, mean inhibition” value in assay [1] (pre-exposure of DCs) came to 65%. For the same molecule, in assay [1] (pre-incubated before poly(I:C) activation, poly(I:C) only 4.33%±0.94), the “DCs expressing the IL-12p35 subunit” value is 1.5%±0.22. Further, in assay [2], the STAT1 phosphorylation entry was “decreased”. In addition, the “expression of IFNAR1 chain on DCs” value in the assay on IFNAR1 is listed as “drastically lost expression”. Besides, the “degradation of rhIFNAR1 (≈110 kD)” value with rhIFNAR1 is “degraded”.
